{"source": "patent US20260103629A1", "about": "(YALE UNIVERSITY, published 2026)", "target": "T1, asialofetuin (Sigma-Aldrich A4781), coated on glass (UniProt P12763 19-359, an extensively glycosylated protein (so in the source))", "T1 construct": "also called asialofetuin-coated surface", "T1 sequence": "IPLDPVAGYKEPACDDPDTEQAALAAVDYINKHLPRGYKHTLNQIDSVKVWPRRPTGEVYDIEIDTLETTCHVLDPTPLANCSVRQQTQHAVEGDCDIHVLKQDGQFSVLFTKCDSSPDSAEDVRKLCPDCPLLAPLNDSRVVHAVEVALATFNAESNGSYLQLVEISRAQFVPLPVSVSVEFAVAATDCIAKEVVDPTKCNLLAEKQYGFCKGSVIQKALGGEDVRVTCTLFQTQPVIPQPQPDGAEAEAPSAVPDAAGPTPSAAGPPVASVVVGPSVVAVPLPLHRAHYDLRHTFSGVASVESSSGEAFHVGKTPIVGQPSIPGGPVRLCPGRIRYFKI", "assay": "in situ anti-FLAG immunostaining of biofilms grown on asialofetuin-coated glass", "data": [{"binder": "Bap1 (Biofilm-Associated Protein 1 of V. cholerae, wild type), tagged with 3xFLAG at the C-terminus (other, also called VC1888; WT Bap1; not shown: C-terminal 3xFLAG tag) SSSSDIQTKLKWSWSTSVFHPESNQVMAAPIVVQLNDDNGDGKIDEKDVADIIVVTFEGNKYANGGYIRALSGVDGSELWSYSNGGVIADARYAPAAADLDGDGLIEIVSTSALTPYINILDHQGNIKKQLLKSASGWRSVGDIALADINGDGNIEILAADGVYSYESGLLFSHDWAPSSIAFDSNGDGQREVFANGTLYQNNGAYLWQYQANDTVWFSSVANLDGDDKPELVVSVPASLSTPENSEIAVLEHDGSVKWRVNNLSNPGGSVQAVSSFLGKPSSSATTVDAQSAVYGYTDWAHQQRVLAENHQLAIRSGAVVDAIGANSQNMIGGSGGSLSTIDTSKVRAIDVTYGKNKYTWKYGVLEMSFTLDNGAKVTVGSKDSAFTYLGLEWKTKTVPYLGVEWRTKTVSYWFFGWHTKQVAYLAPVWKEKTIPYAVPVTLSKSTTVRYDIPQGSQLLGMNVWSKEKHLFKHKQQVNAVQFLVGKVTADQSHMGIVYAGYYAVDMYDAQGNKVWSVANDDLNSGKIGVSAYDFTGDGIDEVLVQDRLRMRILDGQTGRVMGIIANSSGTLWEYPVVADLEGNNNASLIMVANDYDRESQVNHGVFVYESANPSKPWRNATRIWNQYAFNFSDINANGTIPTNAQPSWLTHNSFRSATIRVPLK", "values": [{"measurement": "binding result", "result": "no binding"}]}]}
